Assays:
[1] = biological target: Human Galectin-3 protein (Acro Biosystems, GA3-H5129) (human) (UniProt P17931); assay: ELISA, hGal3 coated, antibody 3 ug/mL, competitor hTIM3
[2] = biological target: Human Galectin-3 protein (Acro Biosystems, GA3-H5129) (human) (UniProt P17931); assay: ELISA, hGal3 coated, competitor hTIM3 (FIG. 24)
[3] = biological target: Human Galectin-3 protein (Acro Biosystems, GA3-H5129) (human) (UniProt P17931); assay: SPR Biacore T200, antibody captured, Galectin-3 analyte

Chain of Human Galectin-3 protein (Acro Biosystems, GA3-H5129) (human) (P17931 2-250): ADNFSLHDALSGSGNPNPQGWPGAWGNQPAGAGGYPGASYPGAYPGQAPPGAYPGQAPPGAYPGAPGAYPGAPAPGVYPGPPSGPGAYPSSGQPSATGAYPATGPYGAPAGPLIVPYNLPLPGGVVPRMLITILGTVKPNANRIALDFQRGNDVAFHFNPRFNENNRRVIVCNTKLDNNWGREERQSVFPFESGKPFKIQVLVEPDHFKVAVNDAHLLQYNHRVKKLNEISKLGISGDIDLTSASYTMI

- GAL3-TIM3 Blocking @ 3 ug/mL [1]: 6%
- reduction of TIM3-GAL3 binding [2]: < 25%
- Kd [3]: 18.4 nM
B1: 9H2.2H1 (antibody, from a related filing, V domains shown)
VH: QVQLQQPGAELVGPGSSVKLSCKASGYTFTNYWIHWVKQRPLQGLEWIGNIDPSDSETHYNQKFKDKATLTVDKSSSTAYMQLSSLTSEDSAVYYCARHGYYDYWGQGTTLTVSS
VL: DIVMTQSHKFMSTSVGDRVSITCKASQDVSTAVAWYQQKPGQSPKLLIYWASTRHTGVPDRFTGSGSGTDYTLTISSVQAEDLALYYCQQHYTTPLTFGAGTKLELKR
